Our source for the Kd and IC50 values is the Immune Epitope Database (IEDB).

In test [1] the target is HLA-B*15:01. The experiment in a line: IEDB peptide-MHC binding, purified MHC/competitive/radioactivity; filed as Kd, often an IC50 or EC50 that approximates it; ≥ and ≤ were set here for values at or beyond the usual limits of such assays. The conditions noted are these: source organism: Vaccinia virus WR.
The target in a further test is HLA-B*15:03. The description is as above.
The target in another test is HLA-A*30:01. The description is as above. The conditions noted are these: source organism: Vaccinia virus WR.
A further test has as its target HLA-A*32:01. The test is described as above. Conditions: source organism: Vaccinia virus WR.
The target of another test is HLA-B*08:01. Described as above. Conditions: source organism: Vaccinia virus WR.
The target of test [2] is HLA-A*02:03. The experiment in a line: IEDB peptide-MHC binding, purified MHC/direct/fluorescence; filed as Kd, often an IC50 or EC50 that approximates it; ≥ and ≤ were set here for values at or beyond the usual limits of such assays.
A further test addresses HLA-A*02:12. Described as above.
The target in the next test is HLA-A*02:19. The description is as above.
Test [3] addresses HLA-A*03:01. The description is as above.
Another test has as its target HLA-A*24:03. The description is as above.
Another test deals with HLA-A*29:02. The description is as above.
Another test concerns the target HLA-A*68:02. The test is described as above.
The target of test [4] is HLA-B*39:01. The test is described as above. The conditions noted are these: source organism: Juquitiba virus.
Another test has as its target HLA-A*26:01. The experiment in a line: IEDB peptide-MHC binding, purified MHC/competitive/fluorescence; filed as Kd, often an IC50 or EC50 that approximates it; ≥ and ≤ were set here for values at or beyond the usual limits of such assays.
The target in a further test is HLA-A*69:01. The description is as above.
The target of test [5] is HLA-B*15:01. The description is as above.
The next test addresses HLA-B*15:17. The description is as above.
For a further test, the target named is HLA-B*18:01. The description is as above.
Another test concerns the target HLA-B*27:03. The test is described as above.
A further test has as its target HLA-B*46:01. Described as above.
For the next test, the target named is HLA-B*51:01. The test is described as above.
The next test deals with HLA-B*57:01. Described as above.
The target of a further test is HLA-A*02:11. The experiment in a line: IEDB peptide-MHC binding, purified MHC/direct/fluorescence; filed as Kd, often an IC50 or EC50 that approximates it; ≥ and ≤ were set here for values at or beyond the usual limits of such assays. Conditions: source organism: Zaire ebolavirus.
A further test has as its target HLA-A*02:16. Described as above. The conditions noted are these: source organism: Zaire ebolavirus.
Test [6] concerns the target HLA-A*02:01. The experiment in a line: IEDB peptide-MHC binding, purified MHC/competitive/fluorescence; filed as Kd, often an IC50 or EC50 that approximates it; ≥ and ≤ were set here for values at or beyond the usual limits of such assays. Conditions: source organism: Zaire ebolavirus.
The target in test [7] is HLA-B*39:01. Described as above. Conditions: source organism: Zaire ebolavirus.
Test [8] concerns the target HLA-A*02:01. The experiment in a line: IEDB peptide-MHC binding, purified MHC/competitive/fluorescence; ≥ and ≤ were set here for values at or beyond the usual limits of such assays. The conditions noted are these: source organism: Vaccinia virus.
Test [9] deals with HLA-A*03:01. The description is as above. The conditions noted are these: source organism: Vaccinia virus.
The next test addresses HLA-A*02:02. The experiment in a line: IEDB peptide-MHC binding, purified MHC/competitive/radioactivity; filed as Kd, often an IC50 or EC50 that approximates it; ≥ and ≤ were set here for values at or beyond the usual limits of such assays. Conditions: source organism: Vaccinia virus WR.
For test [10], the target named is HLA-A*02:03. Described as above. The conditions noted are these: source organism: Vaccinia virus WR.
For another test, the target named is HLA-A*02:06. The description is as above. Conditions: source organism: Vaccinia virus WR.
[11] abbreviates: source organism: Vaccinia virus WR.
The mark [12] stands for this setting: source organism: Araucaria virus.
Where [13] appears, read: source organism: Hantavirus HPR/02-73.
Setting [14] is: source organism: Zaire ebolavirus.

pIC50, pKd: −log10 of the molar value. Some results are limits rather than exact numbers.

VMSQEDNHF: the pKd was 6.72 with HLA-B*15:01 [1] and 6.99 in the test with HLA-B*15:03 (setting [11]).
On to FMYFCEQKL, for which the pKd with HLA-B*15:03 (setting [11]) is 7.45.
On the same count and under the same terms, the same measure for KIVMTPSPF: 6.68.
Turning to RMFGSKPTF, the pKd in the test with HLA-A*30:01 was 5.20; with HLA-A*32:01 it was 5.01; in the test with HLA-B*08:01 it was 5.10; with HLA-B*15:01 [1], 5.12; in the test with HLA-B*15:03 (setting [11]), 9.69.
Take WKAIGAYIL: the pKd with HLA-A*02:03 [2] (setting [12]), in the test with HLA-A*02:12 (setting [12]), with HLA-A*02:19 (setting [12]), with HLA-A*03:01 [3] (setting [12]), in the test with HLA-A*24:03 (setting [12]) and with HLA-A*29:02 (setting [12]) was no more than 4.70 in each case. The pKd was no more than 4.70 in the test with HLA-A*68:02 (setting [12]); 7.57 with HLA-B*39:01 [4]; no more than 4.70 with HLA-A*26:01 (setting [13]); no more than 4.70 with HLA-A*69:01 (setting [13]); no more than 4.70 with HLA-B*15:01 [5] (setting [13]); no more than 4.70 in the test with HLA-B*15:17 (setting [13]). For the same sequence, the pKd with HLA-B*18:01 (setting [13]), with HLA-B*27:03 (setting [13]), with HLA-B*46:01 (setting [13]), with HLA-B*51:01 (setting [13]) and in the test with HLA-B*57:01 (setting [13]) was no more than 4.70 in each case.
On to SQVRVPTVF, for which the pKd with HLA-A*02:03 [2] (setting [14]), in the test with HLA-A*02:11, in the test with HLA-A*02:12 (setting [14]), in the test with HLA-A*02:16, with HLA-A*02:19 (setting [14]) and with HLA-A*03:01 [3] (setting [14]) was no more than 4.70 in each case. The pKd in the test with HLA-A*24:03 (source organism: Sudan ebolavirus - Uganda (2000)), in the test with HLA-A*29:02 (setting [14]), with HLA-A*68:02 (setting [14]), with HLA-A*02:01 [6], with HLA-A*26:01 (setting [14]) and with HLA-A*69:01 (setting [14]) was no more than 4.70 each time. Moreover, the pKd in the test with HLA-B*15:17 (setting [14]), in the test with HLA-B*27:03 (setting [14]), with HLA-B*39:01 [7], in the test with HLA-B*46:01 (setting [14]), with HLA-B*51:01 (setting [14]) and in the test with HLA-B*57:01 (setting [14]) was no more than 4.70 in each case.
As for IEVSSDISF, the pKd with HLA-B*15:03 (setting [11]) was 8.01.
On to LLLQKYPPP, for which the pIC50 in the test with HLA-A*02:01 [8] is 4.47; in the test with HLA-A*03:01 [9], no more than 3.38.
Turning to LMMTLPSIF, the pKd in the test with HLA-B*15:03 (setting [11]) is 9.82.
In the case of LQISRVNDL, the pKd in the test with HLA-A*02:02 is 7.05; with HLA-A*02:03 [10], 7.94; with HLA-A*02:06, 6.64; in the test with HLA-B*15:03 (setting [11]), 7.46.
As for YMSSEPIIF, in the test with HLA-B*15:03 (setting [11]), the pKd is 9.52.
Turning to LMFKHLLHP, the pKd with HLA-A*30:01 was 6.30; with HLA-A*32:01 it was 4.95; with HLA-B*08:01, 8.98; with HLA-B*15:01 [1], 6.99; in the test with HLA-B*15:03 (setting [11]), 7.59.
Take LTIACRVSL: the pKd was 6.32 in the test with HLA-A*30:01; 7.02 with HLA-A*32:01; 6.14 with HLA-B*08:01; 7.12 with HLA-B*15:01 [1]; 6.22 in the test with HLA-B*15:03 (setting [11]).
Consider LKSPKRCSF, for which, in the test with HLA-B*15:03 (setting [11]), the pKd is 8.56.
Consider IFLKPDETF, for which the pKd with HLA-A*02:03 [2] (setting [14]), in the test with HLA-A*02:11, with HLA-A*02:12 (setting [14]), with HLA-A*02:16, in the test with HLA-A*02:19 (setting [14]) and with HLA-A*03:01 [3] (setting [14]) was no more than 4.70 in each case. For the same sequence, the pKd was 7.44 with HLA-A*24:03 (source organism: Sudan ebolavirus - Maleo (1979)); no more than 4.70 with HLA-A*68:02 (setting [14]); no more than 4.70 with HLA-A*02:01 [6]; no more than 4.70 in the test with HLA-A*26:01 (setting [14]); no more than 4.70 with HLA-A*69:01 (setting [14]); no more than 4.70 in the test with HLA-B*15:01 [5] (setting [14]). The pKd in the test with HLA-B*15:17 (setting [14]), in the test with HLA-B*18:01 (setting [14]), in the test with HLA-B*27:03 (setting [14]), in the test with HLA-B*39:01 [7], with HLA-B*46:01 (setting [14]) and with HLA-B*51:01 (setting [14]) was no more than 4.70 in each case. In the test with HLA-B*57:01 (setting [14]), this sequence showed a pKd of no more than 4.70.
As to SQTIELIAF, in the test with HLA-B*15:03 (setting [11]), the pKd is 9.69.
Regarding FSMLGIWFF, in the test with HLA-B*15:03 (source organism: Vaccinia virus Copenhagen), the pKd was 7.55.
In the case of AKSQSDTVF, in the test with HLA-B*15:03 (setting [11]), the pKd is 9.80.

Broadly, the pKd is −log10 of the Kd, conventionally taken in molar units. What is called pIC50 is the IC50 on a negative log10 scale, so that one unit is a factor of ten. A lower pIC50 goes with a high IC50.
